From publication PMC4562812

Biological target: full-length recombinant H7 hemagglutinin (rH7) of A/Anhui/1/2013 (H7N9) virus (influenza A virus A/Anhui/1/2013 (H7N9))
Experiment: SEC

In the case of “full-length recombinant H7 hemagglutinin (rH7) of A/Anhui/1/2013 (H7N9) virus (natural protein)”, the stoichiometry N is reported as 3.
